Assay results: the nanobody polyreactivity screen of Harvey et al. (2022)

Assay: yeast display, Sf9 membrane polyspecificity reagent, FACS + sequencing; frameworks hold sequencing errors
Procedure, shortened: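 A synthetic nanobody library was expressed on Saccharomyces cerevisiae BJ5465 by galactose induction for 36–48 hours. The library was stained for 1 hour at 4 °C with 10% biotinylated, detergent-solubilized Sf9 membrane reagent and enriched with streptavidin microbeads before FACS. Low and high (top ~1%) gates were set on anti-HA fluorescence for expression and streptavidin fluorescence for reagent binding, and each polyreactivity label reflects the gate of origin.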

Row | Sequence | polyreactivity (PSR sort gate)
1 | QVQLVESGGGLVQAGGSLRLSCAASGRIFHYAMGWYRQAPGKERELVAGISKRGGSTYYADSVKGRFTISRDNAKNTVYLQMNSLKPEDTAVYYCAAGRAYDGTKHDYWGQGTQVTVSS | high polyreactivity
2 | QVQLVESGGGLVQAGGSLRLSCAASGNIFATYAMGWYRHAPGKEREFVAAITSRGGGTFYADSVKGRFTISRDNAKNTVYLQMNSLKPEDTAVYYCAARRSGHWLYGYWGQGTQVTVSS | high polyreactivity
3 | QVQLVESGGGLVQAGGSLRLSCAASASTFYTKVMGWYRPAPGKERELVAAISSSGSRTYYADSVKGRFTISRDNAKNTVYLQMNSLKPEDTAVYYCNAYYRLEPDDGDYDYWGQGTQVTVSS | high polyreactivity
4 | QVQLVESGGGLVQAGGSLRLSCAASGSTFSVNAMGWYIQAPGKEREFVAAIRWPGGSTYYADSVKGRFTISRDNAKNTVYLQLNSLKPEDTAVYYCAARIKYRYDWGQGTQVTVSS | low polyreactivity
5 | QVQLVESGGGLVQAGGSLRLSCAASGSIFLKYVMGWYRQAPGKERELVAAISFRSGSTYYADSVKGRFTISRDNAKNTVYLQMNSLKPEDTAVYYCAADAWRSYGYRAYDYWGQGTQVTVSS | high polyreactivity
6 | QDQLVESGGGLVQAGGSLRLSCAASGSIFYPYAMGWYRQATGKEREFVAGITTRGGSTYYADSVKGRFTISRDNAKNTVYLQMNSLKPVDTAVYYCNAGYYLTLDYWGQGTQVTVSS | high polyreactivity
7 | QVQLVESGGGLVQAGGSLRLSCAASGSTFRNYAMGWYRQAPGKERELVAAITKRGGTTYYADSVKGRFTISRDNAKNTCYLQMNSLKPEDTAVYYCATGYNSSPFDYWGQGTQVTVSS | high polyreactivity
8 | QVQLVESGGGLVQAGGSLRLSCASSGSTFRYYAMGWYRPPPGKEREWVAVITSGGSTYYADSVKGRFTISRDNAKNTVSLQMNSLKPEDTAVDYCAAVYAFYVDFDYWGQGTQVTVSS | low polyreactivity
9 | QVQLVESGGGLVQAGGSLRLSCAASGSTFSGNAMGWYRQAPGKEREMVAAITSSRGSTYYADSVKGRFTISRDHAQNTVDLQLNSLKPEDTAVYYCNRYSGGRWYPEYYYWGQGTQVTVSS | high polyreactivity
10 | QVQLVESGGGLVQAGGSLRLSCAASGSIFYKNVMGWYRQAPGKEREFVAAISSSGGSTYYADSVKGRFTISRDNAKNTVYLQMNSLKPEDTAVYYCAATGWGLFRRRYDYWGQGTQVTVSS | low polyreactivity
11 | QVQLVESGGGLVQAGGSLRLSCAASVNTFYGYDMGWYRQAPGKEWELVASITLSGDSTYYADSVKGRFTISRDNEKNTVYLQMNSLKPEDTAVYYCAGVYTYPLGYYHYTYAYWGQGTQVTVSS | low polyreactivity
12 | QVQLVESGGGLVQAGGSLRLSCAASGRIFYKYVMGWDRQAPGKERELVADINRSGGTTYYADSVKGRFTISRDNAKNTVYLQMNSLKPEDTAVYYCTATLPDYWPYYYYQGGDDYWGQGTQVNVSS | low polyreactivity
13 | QVQLVDSGGGLVQAGGSLRLSCAASGFTFRYYAMGWYRQAPGKERELVAAISSSGTRTYYADSVKGRFTISRDNAKTTVYLQMNSLKPEDTAVYYCNAVSPTSTVDYWGQGTQVTVSS | high polyreactivity
14 | QVQLVESGGGLVQAGGSLRLSCAASGSTFYRNAMGWYRQAPGKERELVAAISGSGARTYYADSVKGRFTISRDNAKNTVYLQMNSLKPEDTAVYYCNAKRYFRNHFRTGGMYYWGQGTQVTVSS | high polyreactivity
15 | QVQLVESGGGLVQAGGSLRLSCAASGFTFSWYPMGWYRQAPGKERELVAAITSGGGTNYADSVKGRFTISRDNAKNTVYLQMNSLIPEDTAVYYCAARGRWFYYLDDYWGQGTQVTVSS | low polyreactivity
16 | QVQLVESGGGLVQAGGSLRLSCAASGFIFSQYAMGWYRQAPGKERELVAAISYSGGSTYYADSVKGRFTISRDNAKNTVYLQMNSLKPEDTAVYYCAVSGRSYYRSDYWGQGTQVTVSS | high polyreactivity
17 | QVQLVESGVGLVQAGGSLRLSCASSGRIFGHYAMGWYRQAPGTERELVAAISWRGGRTYYADSVKGRFTISRDHAKNTVYLQMNSLKPEDTAVYYCAAGSSRVFRKAGITRPSGLYYYWGQGTQVSVSS | high polyreactivity
18 | QVQLVESGGGLVQAGGSLRLSCAASGRIFQPNVMGWYRQAPGIERELVAAIRSGSSTYYADSVKGRFTISRDNAKNTVYLQMNSLKPEDTAVDYCATRYRKQYKPYEYWGQGTQVTVSA | high polyreactivity
19 | QVQLVESGGGLVHAGGSLRLSCAASGRIFSPYARGWYRQAPGKERELDAAMSGSRGRTYYADSVKGRFTISRDNAKNTEYLLMNRLKPEDTADYYCAAYRAITRANYLDYWGQGTQVTVSS | high polyreactivity
20 | QVQLVESVGGLVQAGGSLRLSCAASGGIFWVYAMGWYRQAPGKERELVAAISNSDTSTSYADSVKGRFTISRDNAKNTVYLQMNSLKPEDTAVYYCNADSPSLSGDYWGQGTQVTVSS | low polyreactivity
21 | QVHLVESGGGLVQAGGSLRLSCAASGRIFPAYVMGWYRQAPGKERELVAGITSASSTYYADSVKGRFTISRDNAKNTVYLQMNSLKPEDTAVYYCAAVGYSVRQRYDYWGQGTQVTVSS | high polyreactivity
22 | QVQLVESGGGLVQAGGSLRLSCAASGFTFFPYAMGWYRQAPGKEREFVAANFSDGSTYYADSVKGRFTISRDNAKNTVYLQINILKPEDTAVYYWAAAWYEQAYQTGYFEFDYWGLGTQVTVSS | low polyreactivity

Row | Sequence | polyreactivity (PSR sort gate)
23 | QVQLVESGGGLVQAGGSLRLSCAASGSIFYTYAMGWYRQAPGKERELVAAINWSGGRTYYADSVKGRFTISRDNAKNTVYLQMNSLTPEDTAVYSCAARRGRSWGGFDYWGQGTQVTVSS | low polyreactivity
24 | QVQLVESGGGLVQAGGSLRLSCAASGRTLGRYAMGWYRPAPGKERELVAAITRRGGITYYADSVKGRFTISRDNAKNTVYLQMNSLKPEDTAVYYCNAVNKSLQPVRDVYPLYRHDYWGQGTQVTVSS | high polyreactivity
25 | QVQLQESGGGLVQAGGSLRLSCAASGYISSWYPMGWYRQAPGKEREFVATIAPGATPYYADSVKGRFTISRDYAKNTVYLQMNSLKPEDTAVYYCAAGPENNDFYSYWGQGTQVTVSS | low polyreactivity
26 | QVQLVESGGGLVQAGGSLRLSCAASGRIFHRYAMGWYRQAPGKEREFVAAITYSTGTTYYADSVKGRFTISRDNAKNTVYLQMNSLKPEDTAVYYCAKDSRFWHKSWFAYGYDYWGQGTQVTVSS | low polyreactivity
27 | QVQLVESGGGLVQAGGSLRLSCAASGSTIPSYALGWYRPAPGKERELGASITYSDGTTRYADSVKARFTISRDNAKNTVYLQMNSLKPEDTAVYYCNAVYYREGMDYWGQGTQVTVSS | low polyreactivity
28 | QVQLQESGGGLVQAGGSLRLSCAESGYISHAVEMGWYRQAPGKVHELVASISNGGSTNYADSVKGRFTISRDNAKNTVYLQMNSLKSEDTAVYYCAAWTGQVDIHSYWGQGTQVSVSS | low polyreactivity
29 | QGQLVESGGGLVQAGGSLRLSCAASGTTFTKYAMGWYRPAPGKERELVATISQSSGRTYYADSVKRRFTISRDNAKNTVYLQMNTLKPEDTAVYYCAARYGYAVYYYGTPVRRYYYWGQGTQVTVSS | high polyreactivity
30 | QVQLVESGGGLVQAGGSLRLSCAASGFTFRRYVMGWYRQAPGKERELVAAISQSGGSTYYADSVKGRFTISRDNAMNTVYLQMNSLKPEDTAVYYCAAAKVPYGWAQSDYWGQGTQVTVSS | high polyreactivity
31 | QVQLVESGGGLVQAGGSLRLSCAASGSNFQVNAMGWYRQAPGKERELVASIDSSGGSTYYADSVKGRFTISRDNAKNTVYLQMNSLKPEDTAVFYCAAEYHHYYYYWGEYWGQGTQVTVSS | low polyreactivity
32 | QVQLVESGGGLVQAGGSLRLSCAASGRTFRFNAMGWYRQAPGKERELVAAISSGGNTYYADSVKGRFTISRDNAKNTVYLQMNSLKPEDTAVYYCNTVYLYGTHDYWGQGTQVTVSS | low polyreactivity
33 | QVQLVESGGGLVQGGGSLRLSCAASGLIFYHYAMGWYRQAPGKEREFVAAITVSGGSTSYADSVKGRFTISRDNAKNTVDLQMNSLKPEDNAVYYSADRVNYRSPGVSKGRDYWGQGTQVTVSS | low polyreactivity
34 | QVQLVESGGGLVQAGGSLRLSCAASGSIIQGYVMGWYRQAPGKERELVAAISNSGSSTYYADSVKGRFTISRDNAKNTVYIQMNSLKPEDTAVYYCAVLRSYRGYKYGYWGQGTQVTVSS | high polyreactivity
35 | QVQLVESRGGLVQAGGSLRLSCAASGLIFLGYAMGWYRQAPGKERELVASIRTGGSTSYADSVKGRFTISRDNAKNTVYLQMNSLKPEDTAVYYCAADRGRPNLPGDYWGQGTQVTVSS | low polyreactivity
36 | QVQLVESGGGLVQAGGSLRLSCAASGSIYDIYAMGWYGQAPGKERELVAAIRSGDRTHYADSVKGRFTISRDNAKNTVYLQMNSLKPEDTAVYYCAADRYIYLNREHDYWGQGTQVTVSS | low polyreactivity
37 | QVQLVESGGGLVQAGGSLRLSCAASGFTFRWYAMGWYRQAPGKERELVAAITGSGGSTYYADSVKGRFTISRDNAKNTVYLQMNSLKPEDTAVYYCNRYGVRYYRYDYWGQGTQVTVSS | high polyreactivity
38 | QVQLVESGGGLVQAGGSLRLSCAASGRIFGVYAMGWYRQAPGKERELVADISWSADSTYYADSVKGRFTISRDNAKNTVYLQMNSLKPEDTAVYYCAADALFNVQNSRGYDYWGQGTQVTVSS | low polyreactivity
39 | QVQLVESGGGLVQAGGSLRLSCAASGRIFRKYTMGWYRQAPGKERELVAAISRNGGDTYYADSVKGRFTISRDNAKNTVYLQMHSLKPEDPAVYYCNARTPPDSTHFAYWGQGTQVTVSS | low polyreactivity
40 | QVQLVESGAGLDQAGGSLRLSSAASGNTFQYYAMGSYRQAAGKERELVASISYRGGRTYYADSVKGRFTISRDNAKYTVYLQMNSLKPADTAVYYCAKSKYTNVLYNYWGQGTQVTVSS | high polyreactivity
41 | QVQLVESGGGLVQAGGSLRLSCAASGRIFASNDMGWYRQAPGKEREWVAAITSGGSTYYADSVKGRFTISRDNAKNTVYLQMNSLKPEDTAVYYCAAGSAYYSQRYFAYGYYSWGQGTQVTVSS | low polyreactivity
42 | QVKLVESGGGLVQAGGSLRLSCAASGSSFTNYAMGWYRQEPRKERELVAAITSVGSTYYADSVKGRFTISRDNAKNTVYLQMNSLKPEDTAVYYCNVVYRDQYNYWGQGTQVTVSS | low polyreactivity
43 | QVQLVESGGGLVQAGGSLRLSCAASGSTGLNAMGWYRQAPGKERELVAAITWSGGSTYYADSVKGRFTISRDNAKNTVYLQMNSLKPVDTAVYYCAAQYTWYKSRYGYWGQGTQVTVSS | high polyreactivity
